The source of these data is patent US20090004644 (Conceptual MindWorks, Inc, published 2009).

For data set [1], the target named is Botulinum neurotoxin type A light chain (UniProt P0DPI1 P0DPI1:2-448).
Data set [2] deals with Botulinum neurotoxin type B heavy chain (UniProt B1INP5 B1INP5:442-1291).
The target of data set [3] is Botulinum neurotoxin type A heavy chain (UniProt P0DPI1 P0DPI1:449-1296).
Data set [4] addresses Botulinum neurotoxin type B light chain (UniProt B1INP5 B1INP5:2-441).

Sequence of Botulinum neurotoxin type B heavy chain (B1INP5 442-1291, one chain of several): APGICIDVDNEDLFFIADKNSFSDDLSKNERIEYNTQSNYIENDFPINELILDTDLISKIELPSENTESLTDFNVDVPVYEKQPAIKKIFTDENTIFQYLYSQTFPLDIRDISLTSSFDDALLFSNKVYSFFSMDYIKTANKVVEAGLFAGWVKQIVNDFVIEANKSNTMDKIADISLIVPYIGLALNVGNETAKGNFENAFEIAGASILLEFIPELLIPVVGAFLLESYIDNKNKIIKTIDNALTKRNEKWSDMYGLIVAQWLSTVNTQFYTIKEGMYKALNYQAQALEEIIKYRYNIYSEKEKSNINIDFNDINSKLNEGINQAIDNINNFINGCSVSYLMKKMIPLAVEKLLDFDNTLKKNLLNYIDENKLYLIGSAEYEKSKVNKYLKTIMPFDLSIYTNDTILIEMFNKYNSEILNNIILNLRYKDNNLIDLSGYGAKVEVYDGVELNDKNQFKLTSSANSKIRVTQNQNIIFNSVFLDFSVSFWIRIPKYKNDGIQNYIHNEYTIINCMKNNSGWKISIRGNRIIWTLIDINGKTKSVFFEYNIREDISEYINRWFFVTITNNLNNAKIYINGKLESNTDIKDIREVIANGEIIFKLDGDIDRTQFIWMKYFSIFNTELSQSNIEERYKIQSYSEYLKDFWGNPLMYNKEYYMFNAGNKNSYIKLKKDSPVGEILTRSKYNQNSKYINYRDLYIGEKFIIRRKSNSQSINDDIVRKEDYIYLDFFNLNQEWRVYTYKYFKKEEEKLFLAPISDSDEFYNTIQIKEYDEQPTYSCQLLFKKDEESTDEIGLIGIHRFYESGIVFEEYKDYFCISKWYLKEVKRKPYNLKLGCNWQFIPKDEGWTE
Sequence of Botulinum neurotoxin type A heavy chain (P0DPI1 449-1296, one chain of several): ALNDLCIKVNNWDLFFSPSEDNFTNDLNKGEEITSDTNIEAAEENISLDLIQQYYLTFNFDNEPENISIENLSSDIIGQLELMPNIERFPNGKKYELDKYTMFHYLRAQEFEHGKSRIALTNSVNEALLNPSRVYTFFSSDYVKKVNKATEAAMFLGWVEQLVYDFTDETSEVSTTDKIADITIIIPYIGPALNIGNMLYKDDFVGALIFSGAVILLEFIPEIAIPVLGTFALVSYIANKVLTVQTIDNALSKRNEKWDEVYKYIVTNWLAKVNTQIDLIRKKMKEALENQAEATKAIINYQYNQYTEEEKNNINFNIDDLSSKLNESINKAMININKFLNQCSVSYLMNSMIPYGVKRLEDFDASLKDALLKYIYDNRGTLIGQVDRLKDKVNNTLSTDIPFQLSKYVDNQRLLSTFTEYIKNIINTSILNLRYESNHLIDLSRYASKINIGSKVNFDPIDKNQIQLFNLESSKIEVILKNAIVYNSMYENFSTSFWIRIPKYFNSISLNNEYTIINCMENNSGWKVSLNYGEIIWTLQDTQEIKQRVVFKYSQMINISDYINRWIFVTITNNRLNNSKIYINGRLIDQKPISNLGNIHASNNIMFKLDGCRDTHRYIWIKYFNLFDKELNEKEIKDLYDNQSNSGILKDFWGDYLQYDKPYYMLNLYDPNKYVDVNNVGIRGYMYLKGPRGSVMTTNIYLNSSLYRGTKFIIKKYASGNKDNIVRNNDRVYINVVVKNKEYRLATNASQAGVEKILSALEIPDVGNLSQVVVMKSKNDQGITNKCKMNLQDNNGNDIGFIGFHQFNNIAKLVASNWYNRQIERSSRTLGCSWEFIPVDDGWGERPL
Sequence of Botulinum neurotoxin type A light chain (P0DPI1 2-448, one chain of several): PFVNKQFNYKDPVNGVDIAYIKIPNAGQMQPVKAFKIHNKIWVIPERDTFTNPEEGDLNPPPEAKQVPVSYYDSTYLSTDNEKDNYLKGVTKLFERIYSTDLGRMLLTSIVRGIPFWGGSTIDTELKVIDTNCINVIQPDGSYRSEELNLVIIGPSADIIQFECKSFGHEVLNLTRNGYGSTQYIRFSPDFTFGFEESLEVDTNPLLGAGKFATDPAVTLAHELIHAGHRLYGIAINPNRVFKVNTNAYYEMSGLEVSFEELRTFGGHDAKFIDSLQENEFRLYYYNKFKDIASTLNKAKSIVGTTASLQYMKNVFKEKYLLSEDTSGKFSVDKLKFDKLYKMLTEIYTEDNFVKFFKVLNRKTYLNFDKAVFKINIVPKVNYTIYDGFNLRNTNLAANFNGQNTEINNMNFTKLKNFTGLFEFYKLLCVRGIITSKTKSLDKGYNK
Sequence of Botulinum neurotoxin type B light chain (B1INP5 2-441, one chain of several): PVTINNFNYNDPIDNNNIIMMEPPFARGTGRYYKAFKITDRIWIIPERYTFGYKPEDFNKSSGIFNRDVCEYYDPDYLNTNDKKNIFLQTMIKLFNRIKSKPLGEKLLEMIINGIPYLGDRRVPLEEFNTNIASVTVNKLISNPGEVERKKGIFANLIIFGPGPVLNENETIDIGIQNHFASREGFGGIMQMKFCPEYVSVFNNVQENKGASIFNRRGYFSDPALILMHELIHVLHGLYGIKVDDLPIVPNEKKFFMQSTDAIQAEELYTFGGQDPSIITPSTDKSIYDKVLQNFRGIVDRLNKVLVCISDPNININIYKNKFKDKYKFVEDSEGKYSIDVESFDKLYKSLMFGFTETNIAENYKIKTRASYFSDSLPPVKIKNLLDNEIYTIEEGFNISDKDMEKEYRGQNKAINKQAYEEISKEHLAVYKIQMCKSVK

B1: LCA 1(+) (DCE-1) (ssDNA)
DNA: AGTCTAGAGGGCCCCAGAATACACCCGACAACTAGATACCCATCAAAAGTCCAGCAAAGGATGCAGGGGT
B1: the binding result in data set [1] was “binds”; in data set [2], “no binding”; in data set [3] it was “no binding”.

B2: 4(+) SELEX holotoxin aptamer (DCE-4) (ssDNA)
DNA: CATCCGTCACACCTGCTCTGCTATCACATGCCTGCTGAAGTGGTGTTGGCTCCCGTATCA
With B2, the binding result in data set [2] and in data set [3] was “binds” each time.

B3: LCB 2(+) (DCE-2) (ssDNA)
DNA: AGTCTAGAGGGCCCCAGAATTATCCACTAGCGGGAAGTAGTACATCTCACCCAGCAAAGGATGCAGGGGT
As for B3, the binding result in data set [4] is “binds”.

B4: 3(+) SELEX LCA aptamer (DCE-3) (ssDNA)
DNA: CATCCGTCACACCTGCTCTGGGGATGTGTGGTGTTGGCTCCCGTATCAAGGGCGAATTCT
As to B4, the binding result in data set [1], in data set [4], in data set [2] and in data set [3] was “binds” throughout.
